{"source": "paper PMC5624674", "biological_target": "T1, λCI-CbtA fusion protein (wild-type CbtA toxin of E. coli) (E. coli), P64524", "T1 chain": "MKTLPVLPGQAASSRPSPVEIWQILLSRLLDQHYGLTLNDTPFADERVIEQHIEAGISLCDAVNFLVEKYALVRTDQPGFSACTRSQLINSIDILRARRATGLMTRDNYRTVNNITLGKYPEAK", "assay": "two-hybrid", "conditions": "remark: other sources report otherwise", "data": [{"binder": "α-MreB fusion protein (wild-type E. coli MreB), P0A9X4 1-347 (natural protein) MLKKFRGMFSNDLSIDLGTANTLIYVKGQGIVLNEPSVVAIRQDRAGSPKSVAAVGHDAKQMLGRTPGNIAAIRPMKDGVIADFFVTEKMLQHFIKQVHSNSFMRPSPRVLVCVPVGATQVERRAIRESAQGAGAREVFLIEEPMAAAIGAGLPVSEATGSMVVDIGGGTTEVAVISLNGVVYSSSVRIGGDRFDEAIINYVRRNYGSLIGEATAERIKHEIGSAYPGDEVREIEVRGRNLAEGVPRGFTLNSNEILEALQEPLTGIVSAVMVALEQCPPELASDISERGMVLTGGGALLRNLDRLLMEETGIPVVVAEDPLTCVARGGGKALEMIDMHGGDLFSEE", "values": [{"measurement": "fold increase in lacZ expression", "value": 3, "unit": "fold"}]}]}
